± gives the half width of the 95% confidence interval.
Legend:
[1] = folding stability dG unfold from trypsin proteolysis; higher = more stable
Summary of the method: (§1)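 Designed mini-proteins with no cysteine and under 80 residues were kept only if AlphaFold2 dimer inter-PAE was above 15. In a PA-tagged cDNA display construct, they were digested with trypsin and chymotrypsin and then sequenced. K50 was inferred by Bayesian fitting of counts, and unfolding free energy was derived per protease or combined against a sequence-predicted unfolded-state K50 and a shared folded-state K50.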

[2] = folding stability dG unfold (combined trypsin and chymotrypsin); higher = more stable
Summary of the method: as §1

[3] = folding stability dG unfold from chymotrypsin proteolysis; higher = more stable
Summary of the method: as §1

Sequence	folding stability dG unfold [1] [kcal/mol]	folding stability dG unfold [2] [kcal/mol]	folding stability dG unfold [3] [kcal/mol]
SAGGSAGGSMVRVTRLPDGTYRIEIELPGESLEREARGPEEVEALAEEIEKETGVPVEIETLESAGGSAGGS [r12_783_JUSTAS]	1.1 ± 0.068	0.945 ± 0.14	0.908 ± 0.096
SAGGSAGGSAGDFKIKDVEVERPPGRHRVEIRLPGNKKPIKIDNVPTPDDAEDAVKELLKSAGGSAGGSAGG [r11_183_TrROS]	0.0405 ± 0.073	0.683 ± 0.1	0.975 ± 0.056
SAGGSAGGSGITIPAGSPEKVYELLSALEKLGFKPKKVSVSGNYVIVDFENGIPVNIEINPGKSAGGSAGGS [r20_93_TrMRF]	1.06 ± 0.059	2.38 ± 0.052	2.85 ± 0.039
SAGGMPLPFRITQWDPNTGKPVATFPAVYDPETGLVVITPPDGSKEVFDAPLEEIVEALPSNWTVEPSAGGS [r16_543_TrMRF]	0.121 ± 0.096	0.083 ± 0.16	-0.0752 ± 0.48
SAGGSANPKPKIEIDKIYRMPDGQVHIPIEMERYDDDGQKETYPMDVTFNVPEGKPLTPNAIKDLISAGGSA [r15_836_TrROS]	-0.645 ± 0.064	-0.693 ± 0.15	-0.924 ± 0.24
SAGGSANTTYIELPTNGMSDEEVKELAEELAKKLGVKLEIKPLPGEGYWVVTFTLPDSTSTIVIPGSAGGSA [r15_168_JUSTAS]	2.55 ± 0.11	2.41 ± 0.11	2.37 ± 0.038
SAGGKKITITLTVKTPEDALAAARELAEALGLKIKKIKKVEVTYDEENNLVTVKVEIEIEPLPEEELSAGGS [r16_155_TrROS_Hall]	4.69 ± 0.33	4.41 ± 0.19	4.27 ± 0.1
SAGGSAGGELPPPPLLVVRVTVRRDGKELELELVVPSLEEALEALRALLPEEDLEIRVEVRLLPSAGGSAGG [r6_113_TrROS_Hall]	2.12 ± 0.089	2.67 ± 0.2	2.92 ± 0.16
SAGGSAGGSNYVVRIKIRYPDPDGKPIYEHTIDIPVPDEEITADELRKQLKPPGYEITDIEVLSAGGSAGGS [r12_611_TrROS]	0.509 ± 0.028	0.57 ± 0.12	0.314 ± 0.16
SAGLSPQVRDWLRDLFQEEGFKVKEIDVQPHPNGQMYIKINYPNGKPIKEIPVPPGMDTPEQALKMIRKSAG [r5_352_TrROS]	-0.00734 ± 0.11	0.312 ± 0.07	0.498 ± 0.13
SAGLGIWRDPDMWKLEFNLLLPNGYVYKVEVTVTPDGIDVSIEPVPIPPVPTADSPEDAKEYQKQNENQSAG [r5_272_TrROS]	1.06 ± 0.13	2.06 ± 0.35	2.61 ± 0.18
SAGGSAGGSKKITIVVPTKEQAEALAKALEEAGYKVEKLPDGTLKITVDGKKIEVRIVPPKPKSAGGSAGGS [r12_204_TrROS_Hall]	1.28 ± 0.023	2.7 ± 0.059	3.15 ± 0.047
SAGGSAGGDPRPVRVEVLRLEYDPPSGLLRALVRNPENDLLVFATLRIFPDPAGAELRVESVVFSAGGSAGG [r6_70_TrMRF]	1.39 ± 0.071	2.49 ± 0.11	2.85 ± 0.1
SAGMTFEAEVKEKTIYIPEINNIIKIKIVNLKPPEGPIIPIIKIEFYVSENTTPEDIIKLLKELNIPVESAG [r5_486_TrMRF]	2.09 ± 0.16	2.07 ± 0.099	2.11 ± 0.024
SAGGSAGGSAEITVEWPNGRPVTVEPDPDSGMYEARFPDGWVVRAPFTNGKIPIDWIPPKDVSAGGSAGGSA [r18_405_TrROS]	-0.578 ± 0.28	0.00326 ± 0.08	0.282 ± 0.07
SAGGALENAPITVNVTITITLKDEKGNTPVITIPVTATVTSQAEADALVNATAAALEAALGATVTVASAGGS [r8_149_JUSTAS]	1.65 ± 0.12	1.95 ± 0.096	2.04 ± 0.14
SAGGSAGGSAGPPDIEVNYYRYEGYYRVNISFPNNRPIEIMMKGPGMPAEDFVKKLLDQLSAGGSAGGSAGG [r11_313_TrROS]	1.84 ± 0.1	2.1 ± 0.14	2.35 ± 0.059
SAGGSAGGMLEITVPSRREPDSLEVEITITDPSSNTTTTLRRRFPPGDETSPEEIAEKIAAELSSAGGSAGG [r6_234_JUSTAS]	0.677 ± 0.13	0.505 ± 0.28	0.332 ± 0.23
SAGMMKRIVVTARFPADEMTLDEFVELILAKLPGVKPVRVEILSVRPRPDGSYEVTVLLLVEAPPDVDASAG [r5_682_TrMRF]	4.38 ± 0.071	4.23 ± 0.048	4.216 ± 0.032
SAGGSAGGSAGLPVLRPLIIPGPSVLRILEVRLREDGSVEVISEETIPLPPPIPSPSELTSAGGSAGGSAGG [r11_843_TrMRF]	0.763 ± 0.038	0.905 ± 0.13	0.994 ± 0.16
SAGKALSPEELARYVREKYGLPADAPITIEEVPGKYTLSLPDLRVEVTVTDDTTTVTLRPPDPGPEAALSAG [r5_190_JUSTAS]	0.97 ± 0.044	1.42 ± 0.14	1.57 ± 0.16

Source: the supplement of paper PMC12764529
